The results in this text go back to the MegaScale stability set (Tsuboyama et al. 2023).

The labels stand for the following.
B1: EEHEE_rd4_0647 (parent)
chain: MQVTWGNVTVTFSNPEEAKKYAEKVARKLGGQVELHNGQFRIK

In this series the parent is B1. The series can be described thus: folding stability dG (cDNA display proteolysis); higher = more stable. Conditions: PBS, room temperature.
For the variant MQVTWGYVTVTFSNPEEAKKYAEKVARKLGGQVELHNGQFRIK [N7Y], the “folding stability dG” value was determined as 2.54 kcal/mol.
The same measure for MQVTWGMVTVTFSNPEEAKKYAEKVARKLGGQVELHNGQFRIK [N7M]: 2.37 kcal/mol; for MQVTWGNVTVTFSNPEEAKKYAEKVARWLGGQVELHNGQFRIK [K28W]: 3.23 kcal/mol; for MQVTWGNVTVTFSNPEEAKKYAEKVARNLGGQVELHNGQFRIK [K28N]: 2.29 kcal/mol.
The same measure for MQVTWGNVTVTFSNPEEAQKYAEKVARKLGGQVELHNGQFRIK [K19Q]: 2.61 kcal/mol; for MQVTWGNVTNTFSNPEEAKKYAEKVARKLGGQVELHNGQFRIK [V10N]: 1.2 kcal/mol; for MQVTWGNVTRTFSNPEEAKKYAEKVARKLGGQVELHNGQFRIK [V10R]: 2.65 kcal/mol.
As for MQVTWGNVTQTFSNPEEAKKYAEKVARKLGGQVELHNGQFRIK [V10Q], the figure is 1.85 kcal/mol; as for MQKTWGNVTVTFSNPEEAKKYAEKVARKLGGQVELHNGQFRIK [V3K], 0.404 kcal/mol; as for MQQTWGNVTVTFSNPEEAKKYAEKVARKLGGQVELHNGQFRIK [V3Q], 0.078 kcal/mol.
For MQVTWGNVTVTFSNPEEAKKYAEKVAIKLGGQVELHNGQFRIK [R27I], the “folding stability dG” value was found to be 2.52 kcal/mol.
Regarding MQVTWGNVTVTFSNPEEAKKYAEKKARKLGGQVELHNGQFRIK [V25K], the “folding stability dG” value was 1.68 kcal/mol.
For MQVNWGNVTVTFSNPEEAKKYAEKVARKLGGQVELHNGQFRIK [T4N], the “folding stability dG” value came to 2.18 kcal/mol.
The same measure for MQVGWGNVTVTFSNPEEAKKYAEKVARKLGGQVELHNGQFRIK [T4G]: 1.46 kcal/mol.
As for MQVTWGNVTVTFSNPEEAKEYAEKVARKLGGQVELHNGQFRIK [K20E], the figure is 2.73 kcal/mol; as for MQVTWGNVTVTFSLPEEAKKYAEKVARKLGGQVELHNGQFRIK [N14L], 2.23 kcal/mol; as for MQVTWGNVTVTFSQPEEAKKYAEKVARKLGGQVELHNGQFRIK [N14Q], 2.2 kcal/mol.
The same measure for MQVTWGNVTVTFSSPEEAKKYAEKVARKLGGQVELHNGQFRIK [N14S]: 2.86 kcal/mol; for MQVTWGNVTVTFSNPEEAKKYAEKVARKLWGQVELHNGQFRIK [G30W]: 1.74 kcal/mol; for MQVTWGNVTVTFSNPEEAKKYAEKVARKLNGQVELHNGQFRIK [G30N]: 2.63 kcal/mol.
As for MQVTWGNVTVTFSNPEEAKKYAEKVARKLIGQVELHNGQFRIK [G30I], the “folding stability dG” value turned out to be 1.34 kcal/mol.
The same measure for MQVTWGNVTVTFSNPEEAKKYAEKVARKLTGQVELHNGQFRIK [G30T]: 1.34 kcal/mol; for MQVTWGNVTVTFSNPEEAKKYAEKVARKLGGQVELHNGQFRIW [K43W]: 2.67 kcal/mol.
As for MQVTWGNVTVMFSNPEEAKKYAEKVARKLGGQVELHNGQFRIK [T11M], the figure is 2.64 kcal/mol.
As for MQVTWGNVTVTFSNPEEAKKYAEKVARKLGGQPELHNGQFRIK [V33P], the figure is 1.22 kcal/mol; as for MQVTWGNVTVTFSNPEEAKKYAEKVARKPGGQVELHNGQFRIK [L29P], 0.143 kcal/mol; as for MQVTWGNVTVTFSNPEEAKKYAEKVSRKLGGQVELHNGQFRIK [A26S], 1.71 kcal/mol.
MQVTLGNVTVTFSNPEEAKKYAEKVARKLGGQVELHNGQFRIK [W5L]: the “folding stability dG” value stood at 2.12 kcal/mol.
Take MQVTWGNVTVTFYNPEEAKKYAEKVARKLGGQVELHNGQFRIK [S13Y]: the “folding stability dG” value is 2.38 kcal/mol.
As for MQVTWGNVTVTFSNPTEAKKYAEKVARKLGGQVELHNGQFRIK [E16T], the figure is 2.75 kcal/mol; as for MQVTWGNVTVTFSNPEEAKKYAEKVARKLGGHVELHNGQFRIK [Q32H], 2.89 kcal/mol.
As for MQVTWGNVTVTFSNPEEAKKYAYKVARKLGGQVELHNGQFRIK [E23Y], the figure is 3.15 kcal/mol; as for MQVTWGNVTVTFSNPEEAKKYAGKVARKLGGQVELHNGQFRIK [E23G], 1.86 kcal/mol.
The same measure for MQVTWGNVTVTFSNPEEAKKYAVKVARKLGGQVELHNGQFRIK [E23V]: 2.42 kcal/mol; for MQVTWGNVTVTFSNPEEAKKYAAKVARKLGGQVELHNGQFRIK [E23A]: 2.43 kcal/mol.
As for MQVTWGNVTVTFSNPEEAKKYAEKVARKLGGQVELHDGQFRIK [N37D], the “folding stability dG” value was 2.69 kcal/mol.
As for MQVTWGNVTVTFSNPEEAKKYAEKVARKLGGQVELHNDQFRIK [G38D], the “folding stability dG” value is 1.91 kcal/mol.
The same measure for MQVTWGNVTVTFSNPEMAKKYAEKVARKLGGQVELHNGQFRIK [E17M]: 2.83 kcal/mol; for MQVTWGNVTVTFSNPEWAKKYAEKVARKLGGQVELHNGQFRIK [E17W]: 2.53 kcal/mol.
MQVTWGNVTVTFSNPERAKKYAEKVARKLGGQVELHNGQFRIK [E17R]: the “folding stability dG” value is 2.62 kcal/mol.
The same measure for MQVTWGNDTVTFSNPEEAKKYAEKVARKLGGQVELHNGQFRIK [V8D]: 1.33 kcal/mol; for MQVTWGNVTVTFSNPEEAKKYAEKVARKLGGQVLLHNGQFRIK [E34L]: 2.21 kcal/mol.
As for MQVTWGNVTVTFSNPEEAKKYAEKVARKLGGQVVLHNGQFRIK [E34V], the figure is 2.81 kcal/mol.
The same measure for MQVTWGNVTVTFSNPEEAKKYAEKVARKLGGQVHLHNGQFRIK [E34H]: 2.17 kcal/mol; for MQVTWGNVTVTFSNPEEMKKYAEKVARKLGGQVELHNGQFRIK [A18M]: 0.885 kcal/mol.
For the variant MQVTWHNVTVTFSNPEEAKKYAEKVARKLGGQVELHNGQFRIK [G6H], the “folding stability dG” value amounted to 2.48 kcal/mol.
As for MQVTWGNVTVTFSNPEEAKKYAEKVARKLGGQVELHNGQFRHK [I42H], the figure is 0.692 kcal/mol.
As for MQVTWGNVTVTFSNPEEAKKYAEKVARKLGGQVELHNGQFRSK [I42S], the figure is 0.574 kcal/mol; as for MQVTWGNVTVTESNPEEAKKYAEKVARKLGGQVELHNGQFRIK [F12E], -0.423 kcal/mol.
On to MQVTWGNVTVTFSNPEEAKKYAEKVARKLGGQVELHNGYFRIK [Q39Y], for which the “folding stability dG” value was found to be 2.29 kcal/mol.
Take MQVTWGNVTVTFSNPEEAKKYAEKVARKLGYQVELHNGQFRIK [G31Y]: the “folding stability dG” value was 2.04 kcal/mol.
As for MQVTWGNVTVTFSNPEEAKKYAEKVARKLGIQVELHNGQFRIK [G31I], the “folding stability dG” value was 2.01 kcal/mol.
The same measure for MQVTWGNVTVTFSNPEEAKKYAEKVARKLGTQVELHNGQFRIK [G31T]: 2.03 kcal/mol.
As for MQVTWGNVTVTFSNPEEAKKYAEKVARKLGSQVELHNGQFRIK [G31S], the figure is 2.19 kcal/mol; as for MQVTWGNVTVTFSNPEEAKKYAEKVARKLGGQVELHNGQPRIK [F40P], 0.658 kcal/mol; as for MQVTWGNVTVTFSNPEEAKKYAEKVARKLGGQVELHNGQHRIK [F40H], 1.07 kcal/mol.
The same measure for MQVTWGNVTVTFSNPEEAKKYAEQVARKLGGQVELHNGQFRIK [K24Q]: 2.8 kcal/mol; for MQVTWGNVTVTFSNPEEAKKYAENVARKLGGQVELHNGQFRIK [K24N]: 2.5 kcal/mol; for MQVTWGNVTVTFSNPEEAKKYAETVARKLGGQVELHNGQFRIK [K24T]: 2.61 kcal/mol.
